Data published in US20110129458A1 (Ablynx, published 2011).
Values belong to the binder of their own block, whether it stands above or below them.

Experiments:
[1] = molecular target: T1, rhPDL2-Fc: fusion protein of the extracellular part of human PD-L2 and mouse Fc gamma 1, R&D Systems Cat … (human; mouse, UniProt Q9BQ51 20-220); assay: ELISA, purified Nanobody titrated on coated PD-L2-Fc (Example 9), OD 490 nm
T1 construct: extracellular domain; Bought product, made in NS0 cells; also called PD-L2 ectodomain; PDL2/hFc
T1 sequence (looked up): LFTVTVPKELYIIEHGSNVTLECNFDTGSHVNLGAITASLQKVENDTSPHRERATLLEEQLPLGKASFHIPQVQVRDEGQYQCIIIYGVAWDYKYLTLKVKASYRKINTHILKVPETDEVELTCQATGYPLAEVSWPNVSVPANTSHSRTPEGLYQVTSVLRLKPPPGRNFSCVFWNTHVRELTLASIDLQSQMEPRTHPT
Protocol: In short, 5 μg/ml PD-L2 ectodomain (R&D Systems, Minneapolis, US, Cat #1224-PL) was immobilized on maxisorp microtiter plates (Nunc, Wiesbaden, Germany) and free binding sites were blocked using 4% Marvel in PBS. Next, 10 μl of periplasmic extract containing Nanobody of the different clones in 100 μl 2% Marvel PBST were allowed to bind to the immobilized antigen. […] Binding specificity was determined based on OD values compared to controls having received no Nanobody (low control). 32 out of the 96 selected clones were able to bind to PD-L2 with some specificity.
Clones were selected for recloning in an expression vector derived from pUC119 which contained the LacZ promoter, a resistance gene for ampicillin or carbenicillin, a multicloning site and the gen3 leader sequence. In frame with the Nanobody® coding sequence, the vector coded for a C-terminal c-myc tag and a (His)6 tag. After expression, the obtained Nanobodies were purified via the His-tag on Talon beads. Purified Nanobodies were tested in ELISA for binding to PD-L2 as described.

[2] = molecular target: T2, rhB7H1-Fc: fusion protein of the extracellular part of human B7-H1 (PD-L1) and mouse Fc gamma 1, R&D Systems … (human; mouse, UniProt Q9NZQ7 19-238); assay: ELISA, Nanobody dilution series 1-3125 nM on coated B7H1/hFc, rabbit anti-VHH detection, OD 490 nm (Example 11)
T2 construct: extracellular domain; Bought product, made in NS0 cells; also called B7-H1 ectodomain; B7H1/hFc
Protocol: (§1) In order to check for bispecific binding, the clones selected and screened for PD-L2 binding were tested for binding PD-L1 in an ELISA setup. In short, plates were coated with 100 μl (2 μg/ml) of B7H1/hFc (R&D Systems, Minneapolis, US, Cat #156-B7) in PBS overnight at 4C. After washing, plates were blocked with 4% MPBS for 2 hours on a shaker. A dilution series of Nanobody (1-3125 nM) in 100 μl 2% Marvell/PBS was added and incubated for 1 hour on a shaker. After washing, detection was performed with 100 μl 1:5000 rabbit-anti-VHH in 2% Marvell/PBS for 1 hour on a shaker. After washing, anti-VHH antibody was detected with 100 μl 1:5000 DARPO (in 2% Marvell/PBS for 1 hour on a shaker). PO was detected with 100 μl OPD (add 1:1000 H₂O₂ before use). The reaction was stopped with 50 μl 1 M H₂SO₄ and absorption was read at 490 nm with a platereader.

[3] = molecular target: T1, rhPDL2-Fc: fusion protein of the …; assay: ELISA, Nanobody dilution series 1-3125 nM on coated PDL2/hFc, rabbit anti-VHH detection, OD 490 nm (Example 10)
Protocol: as §1, with “screened for B7-H1 binding were” for “screened for PD-L2 binding were”, “for binding PD-L2 in an” for “for binding PD-L1 in an”, “μg/ml) of PDL2/hFc (R&D Systems,” for “μg/ml) of B7H1/hFc (R&D Systems,”, “US, Cat #1224-PL) in PBS” for “US, Cat #156-B7) in PBS”, “on a shaker, A dilution” for “on a shaker. A dilution”, “with […] and” for “with 50 μl 1 M H₂SO₄ and”

[4] = molecular target: T2, rhB7H1-Fc: fusion protein of the …; assay: ELISA, purified Nanobody titrated on coated rhB7H1-Fc (Example 5), OD 490 nm
Protocol: In short, 5 μg/ml B7-H1 ectodomain (rhB7H1-Fc, R&D Systems, Minneapolis, US, Cat #156-B7) or control Fc was immobilized on maxisorp microtiter plates (Nunc, Wiesbaden, Germany) and free binding sites were blocked using 4% Marvel in. PBS. […] […] Binding specificity was determined based on OD values compared to controls having received no Nanobody (low control). 17 out of the 96 selected clones were able to bind to B7-H1 with some specificity.

T2 sequence (Q9NZQ7 19-238 limits assumed): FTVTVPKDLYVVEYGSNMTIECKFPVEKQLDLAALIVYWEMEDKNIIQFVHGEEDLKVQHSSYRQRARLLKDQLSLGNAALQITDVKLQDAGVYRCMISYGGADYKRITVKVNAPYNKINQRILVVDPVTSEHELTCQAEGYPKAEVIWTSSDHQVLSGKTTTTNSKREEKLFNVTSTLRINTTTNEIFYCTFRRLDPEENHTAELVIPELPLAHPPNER

B2: 104B10 (VHH)
VHH: EVQLVESGGGLVQAGGSLRLSCAASGSTFSQYDVGWYRQAPGKQRELVAFSSSGGRTIYPDSVKGRFTFSRDNTKNTVYLQMTSLKPEDTAVYYCKIDWYLNSYWGQGTQVTVSS
notes: also called anti-B7H1 nanobody 104B10
binding result [3]: binds | binding result [4]: binds

B3: 104E12 (VHH)
VHH: EVQLVESGGGLVQPGGSLRLSCAASGFTFDYYAIGWFRQAPGKAREGVSCISGGDNSTYYADSVKGRFTISRDNAKNTVYLQMNSLKPEDTAVYYCATGGWKYCSGYDPEYIYWGQGTQVTVSS
notes: also called anti-B7H1 nanobody 104E12
binding result [3]: no binding (tested: 3125 nM)

B4: 104D2 (VHH)
VHH: EVQLVESGGGLVQPGGSLRLSCAASGFTLDYYAIGWFRQAPGKEREWASSISSSDGSTYYADSVKGRFTISRDNAKNTVFLQMNSLKPEDTAVYSCAASQAPITIATMMKPFYDYWGQGTQVTVSS
notes: purified via the His-tag; also called anti-B7H1 nanobody 104D2
binding result [4]: binds

B5: 104D7 (VHH)
VHH: EVQLVESGGGLVQAGGSLTISCAASGITFSDSIVSWYRRARGKQREWVAGISNGGTTKYAESVLGRFTISRDNAKNMVYLQMNGLNPEDTAVYLCKVRQYWGQGTQVTVSS
notes: also called anti-B7H1 nanobody 104D7
EC50 (read off the curve) [3]: ~30 nM | binding result [4]: binds

B6: 103D3 (VHH)
VHH: EVQLVESGGGLVEPGGSLRLSCVASGFTFSSYDMSWVRQAPGKGLEWVSTINSGGGITYRGSVKGRFTISRDNAKNTLYLQMNSLKPEDTAVYYCENGGSSYRRGQGTQVTVSS
notes: also called anti-PDL2 nanobody 103D3
binding result [1]: binds | binding result [2]: no binding (tested: 3125 nM)

B8: 104F5 (VHH)
VHH: EVQLVESGGGLVQPGGSLRLSCAASGFTLDYYAKCWFRQAPGKEREWVSCISSSDGSTYYADSVKGRFTISRDNAKNTVYLQMNSLKPEDTAVYFCAARHGGPLTVEYFFDYWGQGTQVTVSS
notes: purified via the His-tag; also called anti-B7H1 nanobody 104F5
binding result [3]: no binding (tested: 3125 nM) | binding result [4]: binds

Second part, the binder after the results:

binding result [1]: binds | binding result [2]: no binding (tested: 3125 nM)
B1: 103E2 (VHH)
VHH: EVQLVESGGGLVQAGGSLRLSCAASGSTFSNYVSNYAMGWGRQAPGTQRELVASISNGDTTNYADSVKGRFTISRDNAKNTVYLQMNSLKPEDTAVYYCFEHQVAGLTWGQGTQVTVSS
notes: also called anti-PDL2 nanobody 103E2

binding result [1]: binds | binding result [2]: binds
B7: 103F10 (VHH)
VHH: EVQLVESGGGLVQAGGSLRLSCAASGRTFSSGTMGWFRRAPGKEREFVASIPWSGGRTYYADSVKDRFTISRDNAQNTVFLQMNSLKPEDTAVYYCAFKERSTGWDFASWGQGIQVTVSS
notes: also called anti-PDL2 nanobody 103F10
